B1: CNG-CD19-703 (antibody, V domains shown)
VH: QVQLQESGPGLVKPSQTLSLTCTVSGGSISTSTMGVGWIRQHPGKGLEWIGFIWWDDDKRYNPNLKSRVTMSVDTSKNQFSLKLSSVTAADTAVYYCARMELWSYYFEYWGQGTLVTVSS
VL: EIVLTQSPATLSLSPGERATLSCSASSSVSYMHWYQQKPGQAPRLLIYDTSKLASGIPARFSGSGSGTDFTLTISSLEPEDFAVYYCFQGSVYPFTFGQGTKLEIK
B2: CNG-CD19-708 (antibody, V domains shown)
VH: B1 VH with E108D, Y109P
VL: B1 VL with S30G, A54S
B3: CNG-CD19-701 (antibody, V domains shown)
VH: B1 VH with E108D
VL: B1 VL with S30G
B4: CNG-CD19-704 (antibody, V domains shown)
VH: QVQLQESGPGLVKPSQTLSLTCTVSGGSIASGMGVGWIRQHPGKGLEWIGHIWWDDDKRYNPALKSRVTISVDTSKNQFSLKLSSVTAADTAVYYCARMELWSYYFDGWGQGTLVTVSS
VL: B1 VL
B5: CNG-CD19-7 (antibody, V domains shown)
VH: B1 VH with T33G, F52H, N64A, M71I, E108D
VL: B1 VL
B6: CNG-CD19-702 (antibody, V domains shown)
VH: B1 VH with I29T, T33G, G37S, F52H, N64V, M71I, E108D, Y109P
VL: B1 VL
B7: CNG-CD19-710 (antibody, V domains shown)
VH: B1 VH with G27V, T33S, F52H, I53A, N64A, M71I, E108D, Y109P
VL: B1 VL with V29F
B8: CNG-CD19-709 (antibody, V domains shown)
VH: B1 VH with E108D, Y109P
VL: B1 VL with S30G, S55F
B9: CNG-CD19-706 (antibody, V domains shown)
VH: B4 VH with G36S, G108P
VL: B1 VL with S30G
B10: CNG-CD19-705 (antibody, V domains shown)
VH: B1 VH with T33G, F52H, N64A, M71I, E108D
VL: B1 VL with S30G, K52S
B11: CNG-CD19-707 (antibody, V domains shown)
VH: B1 VH with E108D, Y109P
VL: B1 VL with S30G
B12: CNG-CD19-102 (antibody, V domains shown)
VH: QVQLVQSGAEVKKPGASVKVSCKASGYEFTDYIMHWVRQAPGQGLEWMGYINPYNDGSKYTEKFQPRVTMTSDTSISTAYMELSRLRSDDTAVYYCARGTYYYGPQLFDYWGQGTTVTVSS
VL: DIVMTQTPLSLSVTPGQPASISCKSSQSLETSTGTTYLNWYLQKPGQSPQLLIYRVSKRFSGVPDRFSGSGSGTDFTLKISRVEAEDVGVYYCLQLLEDPYTFGQGTKLEIK
B13: CNG-CD19-109 (antibody, V domains shown)
VH: B12 VH with E28D, M34V, K59L, P66G
VL: B12 VL with S28Q, V56A, T102S
B14: CNG-CD19-110 (antibody, V domains shown)
VH: B12 VH with E28T, P66G
VL: B12 VL with V56S, Y101P
B15: CNG-CD19-107 (antibody, V domains shown)
VH: B12 VH with E28D, P66H
VL: B12 VL with K58R
B16: CNG-CD19-104 (antibody, V domains shown)
VH: B12 VH with E28D, M34V, P66G, Q106E
VL: B12 VL with S26G, K58R
B17: CNG-CD19-103 (antibody, V domains shown)
VH: B12 VH with E28T, P66G
VL: B12 VL with S32A, K58R, T102S
B18: CNG-CD19-1 (antibody, V domains shown)
VH: B12 VH with E28T, P66G
VL: B12 VL
B19: CNG-CD19-101 (antibody, V domains shown)
VH: B12 VH with E28D, E62D, P66E, Q106E
VL: B12 VL with S32T, V56A
B20: CNG-CD19-105 (antibody, V domains shown)
VH: B12 VH with Q65E, P66G, Q106E
VL: B12 VL with S28R, K58R, Y101P
B21: CNG-CD19-108 (antibody, V domains shown)
VH: B12 VH with E28D, M34V, P66G
VL: B12 VL with S32V, Y101P
B22: CNG-CD19-106 (antibody, V domains shown)
VH: B12 VH with E28D, K59E, P66G
VL: B12 VL with S32A, K58R

Residue numbers refer to the chain shown, from its start.

The assay concerns the target cynomolgus CD19 (cynomolgus). Put plainly: Octet HTX (ForteBio), IgG on AHC sensor, 1:1 fit.
The molecule B1 yielded a Kd of 2.54 nM and a koff of 0.000352 s⁻¹.
The matching figures for B2: 1.02 nM and 0.000223 s⁻¹.
The matching figures for B3: 0.668 nM and 0.000168 s⁻¹.
The matching figures for B4: 1.24 nM and 0.000194 s⁻¹.
For B5, the equilibrium dissociation constant (Kd) turned out to be 8.43 nM and the koff is 0.000832 s⁻¹.
The matching figures for B6: 1.3 nM and 0.000295 s⁻¹.
The molecule B7 gave a Kd of 1.54 nM and an off-rate constant (koff) of 0.000328 s⁻¹.
The matching figures for B8: 0.639 nM and 0.000168 s⁻¹.
In the same order, the values of B9 are 0.372 nM and 0.00012 s⁻¹.
In the same order, the values of B10 are 6.02 nM and 0.000837 s⁻¹.
Take B11: the dissociation constant Kd was 0.738 nM and the koff is 0.000207 s⁻¹.
In the same order, the values of B12 are 12.1 nM and 0.00218 s⁻¹.
In the same order, the values of B13 are 4.03 nM and 0.00131 s⁻¹.
In the same order, the values of B14 are 6.17 nM and 0.00164 s⁻¹.
Molecule B15 displayed a Kd of 5.64 nM and a koff of 0.00129 s⁻¹.
In the same order, the values of B16 are 5.83 nM and 0.00148 s⁻¹.
In the same order, the values of B17 are 4.69 nM and 0.00109 s⁻¹.
On to B18, for which the Kd worked out at 9.39 nM and the koff stood at 0.00191 s⁻¹.
The matching figures for B19: 9.91 nM and 0.00233 s⁻¹.
The matching figures for B20: 2.24 nM and 0.000679 s⁻¹.
The matching figures for B21: 2.25 nM and 0.00065 s⁻¹.
In turn, B22 registered a Kd of 3.2 nM and a koff of 0.00123 s⁻¹.

The values are drawn from patent US20230037815A1.
